For three molecules, Kd, koff and kon results are on record in publication PMC10167072, “Human granzyme B binds Plasmodium falciparum Hsp70-x and mediates antiplasmodial activity in vitro” (Cell Stress & Chaperones, 2023).

As a reminder, the Kd is the equilibrium constant for the complex coming apart. Broadly, the koff is a measure of how fast the partners let go of each other. Read a high koff as a short-lived complex. One may read the kon as the second-order rate constant of association. Lower therefore signals slow association.

Assay [1] has as its target full-length PfHsp70-xF (P. falciparum). The assay can be described thus: SPR; Hsp70 immobilised (100 µg/mL) on CMD 3D 500L chip, GrB analyte 0-2000 nM, 25 °C, PBS-Tween 20 with 20 mM EDTA pH 7.4, 25 μL/min, 1:1 Langmuir global fit; with ADP. For orientation: Surface plasmon resonance follows binding to a sensor surface in real time, without labels.
The target in assay [2] is PfHsp70-xT, truncated PfHsp70-x lacking the C-terminal EEVN residues (P. falciparum). Described as above.
The target in assay [3] is full-length PfHsp70-xF (P. falciparum). The assay can be described thus: SPR; Hsp70 immobilised (100 µg/mL) on CMD 3D 500L chip, GrB analyte 0-2000 nM, 25 °C, PBS-Tween 20 with 20 mM EDTA pH 7.4, 25 μL/min, 1:1 Langmuir global fit; no nucleotide.
In assay [4] the target is PfHsp70-xT, truncated PfHsp70-x lacking the C-terminal EEVN residues (P. falciparum). Described as above.
Assay [5] addresses full-length PfHsp70-xF (P. falciparum). The assay can be described thus: SPR; Hsp70 immobilised (100 µg/mL) on CMD 3D 500L chip, GrB analyte 0-2000 nM, 25 °C, PBS-Tween 20 with 20 mM EDTA pH 7.4, 25 μL/min, 1:1 Langmuir global fit; with ATP.
The target of assay [6] is PfHsp70-xT, truncated PfHsp70-x lacking the C-terminal EEVN residues (P. falciparum). Described as above.
For a further assay, the target named is T1, human granzyme B (human, UniProt P10144 19-247).
T1 construct: granzyme B, human, serine protease; Bought protein; also called GrB; human GrB; source: bought: Hölzel Diagnostics, Cologne, Germany
The assay can be described thus: SPR; GrB immobilised on the chip, TKD peptides injected as analytes at 0, 125, 500, 750 and 1000 nM, 25 °C, 1:1 Langmuir global fit; no nucleotide. Particulars: both partners purified.

For “human granzyme B (from UniProt P10144 19-247) (enzyme)”, the Kd came out at 1 nM in assay [1]; 2820 nM in assay [2]; 4 nM in assay [3]; 2370 nM in assay [4]; 1 nM in assay [5]; 4200 nM in assay [6]. Further, the koff in assay [1] amounted to 7.06e-06 s⁻¹; in assay [2] it was 2.24e-05 s⁻¹; in assay [3] it was 1.64e-05 s⁻¹; in assay [4] it was 0.000732 s⁻¹; in assay [5], 2.05e-05 s⁻¹; in assay [6] it was 0.000123 s⁻¹. Moreover, the kon came to 3850 M⁻¹ s⁻¹ in assay [1]; 2560 M⁻¹ s⁻¹ in assay [2]; 4350 M⁻¹ s⁻¹ in assay [3]; 2140 M⁻¹ s⁻¹ in assay [4]; 6990 M⁻¹ s⁻¹ in assay [5]; 5870 M⁻¹ s⁻¹ in assay [6].

B1: TKD motif of hHsp70 (14-mer peptide) (peptide)
peptide: TKDNNLLGRFELSG
notes: 14-mer TKD motif of human Hsp70, amino acids 450-463; also called hHsp70 TKD motif
Regarding B1, in the assay with human granzyme B, the Kd stood at 4 nM, the koff is 2.17e-05 s⁻¹ and the kon was 2930 M⁻¹ s⁻¹.

B2: synthetic TKD peptide representing the 14-mer TKD motif of PfHsp70-x (peptide)
peptide: TKDNNLLGKFQLEG
notes: 14-mer TKD motif of PfHsp70-x, Plasmodium falciparum; also called PfHsp70-x TKD; source: synthetic peptide (Genscript, Piscataway, NJ, USA)
In the assay with human granzyme B, B2 showed a Kd of 20 nM, a koff of 3.62e-05 s⁻¹ and a kon of 3130 M⁻¹ s⁻¹.
